Measurements as given in publication PMC7953826 (Nature cell biology, 2020).

Biological target: actin (rabbit skeletal muscle G-actin, polymerised to F-actin) (rabbit, UniProt P68135 1-377)
Test: co-sedimentation

B1: Drosophila dynamin shibire (Shi) (enzyme)
chain: MDSLITIVNKLQDAFTSLGVHMQLDLPQIAVVGGQSAGKSSVLENFVGKDFLPRGSGIVTRRPLILQLINGVTEYGEFLHIKGKKFSSFDEIRKEIEDETDRVTGSNKGISNIPINLRVYSPHVLNLTLIDLPGLTKVAIGDQPVDIEQQIKQMIFQFIRKETCLILAVTPANTDLANSDALKLAKEVDPQGVRTIGVITKLDLMDEGTDARDILENKLLPLRRGYIGVVNRSQKDIEGRKDIHQALAAERKFFLSHPSYRHMADRLGTPYLQRVLNQQLTNHIRDTLPGLRDKLQKQMLTLEKEVEEFKHFQPGDASIKTKAMLQMIQQLQSDFERTIEGSGSALVNTNELSGGAKINRIFHERLRFEIVKMACDEKELRREISFAIRNIHGIRVGLFTPDMAFEAIVKRQIALLKEPVIKCVDLVVQELSVVVRMCTAKMSRYPRLREETERIITTHVRQREHSCKEQILLLIDFELAYMNTNHEDFIGFANAQNKSENANKTGTRQLGNQVIRKGHMVIQNLGIMKGGSRPYWFVLTSESISWYKDEDEKEKKFMLPLDGLKLRDIEQGFMSMSRRVTFALFSPDGRNVYKDYKQLELSCETVEDVESWKASFLRAGVYPEKQETQENGDESASEESSSDPQLERQVETIRNLVDSYMKIVTKTTRDMVPKAIMMLIINNAKDFINGELLAHLYASGDQAQMMEESAESATRREEMLRMYRACKDALQIIGDVSMATVSSPLPPPVKNDWLPSGLDNPRLSPPSPGGVRGKPGPPAQSSLGGRNPPLPPSTGRPAPAIPNRPGGGAPPLPGGRPGGSLPPPMLPSRVSGAVGGAIVQQSGANRYVPESMRGQVNQAVGQAAINELSNAFSSRFK
Kd: 190 ± 30 nM
